Here are results for 5 molecules from patent US20240132587A1 (AstraZeneca / MedImmune, published 2024).

Test [1] addresses T1, human CLDN18.2 (human, UniProt P56856-2 1-261).
T1 construct: whole, on cells; also called CLDN18.2 wild-type
T1 sequence (looked up): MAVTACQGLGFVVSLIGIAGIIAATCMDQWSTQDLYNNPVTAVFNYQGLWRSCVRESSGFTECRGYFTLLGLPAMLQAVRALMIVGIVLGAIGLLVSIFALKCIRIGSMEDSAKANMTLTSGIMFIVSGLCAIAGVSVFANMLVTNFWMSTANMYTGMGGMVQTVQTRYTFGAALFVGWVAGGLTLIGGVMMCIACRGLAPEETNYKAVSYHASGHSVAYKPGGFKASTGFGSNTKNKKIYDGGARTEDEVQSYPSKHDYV
Kind of test: flow cytometry, IgG1 (0-533 nM) on HEK293 cells expressing human CLDN18.2. The procedure:
(§1) Purified CLDN18.2 antibodies were then characterized for affinity and cross-reactivity by flow cytometry. Briefly. HEK293 cells expressing human, cynomolgous monkey, rat or mouse CLDN18.2 were resuspended in FACS Buffer, stained with varying antibody concentrations (0-533 nM), washed with FACS Buffer, stained with Alexa Fluor® 647 AffiniPure F(ab′)₂ Fragment Goat Anti-Human IgG, washed with FACS buffer and stained with FACS buffer supplemented with DAPI. Antibody binding to cells was assessed on a FACSymphony (BD) with gates for live/dead cells. Histograms of median fluorescence intensity (MFI) were used to calculate the geometric mean for each antibody at a given concentration (FlowJo, LLC). Geometric means were plotted in Prism (GraphPad) and used to calculated binding EC₅₀. Representative results are shown for 5 antibodies (ZP1I16_D05 IgG1, 008LY1_D04 IgG1, 08LYG_D08 IgG1, 008M0G_G03 IgG1, ZP1I18_B08 IgG1) and 1 negative control antibody (R347 IgG1) although 31 other prospective antibodies were also characterized (Table 1).
On the technique in general: Flow cytometry measures light scatter and fluorescence of single cells or particles in a stream.

In test [2] the target is T1, human CLDN18.2. Kind of test: flow cytometry on HEK293 cells expressing human CLDN18.2 (FIG. 2A).
Text: FIGS. 2A-2D show CLDN18.2 binding affinity and species cross-reactivity of select leads as determined by flow cytometry measurement in HEK293 cells expressing human (FIG. 2A), cyno (FIG. 2B), rat (FIG. 2C) or mouse (FIG. 2D) CLDN18.2. All leads bind human and cyno CLDN18.2 (99% homology), most leads bind rat CLDN18.2 (90% homology) and only one internal lead binds murine CLDN18.2 (89% homology. R347 is used as a negative control.
as §1

Another test has as its target T2, mouse CLDN18.2 (mouse, UniProt P56857-3 1-264).
T2 construct: whole, on cells; also called murine CLDN18.2; mCLDN18.2
T2 sequence (looked up): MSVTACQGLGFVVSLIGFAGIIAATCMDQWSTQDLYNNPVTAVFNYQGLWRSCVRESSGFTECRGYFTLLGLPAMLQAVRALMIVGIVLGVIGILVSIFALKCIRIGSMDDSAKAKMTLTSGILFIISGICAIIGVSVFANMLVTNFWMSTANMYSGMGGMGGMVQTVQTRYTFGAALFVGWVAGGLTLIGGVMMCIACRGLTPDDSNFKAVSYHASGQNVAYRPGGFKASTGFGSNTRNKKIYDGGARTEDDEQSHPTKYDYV
The test is described as follows: flow cytometry, IgG1 (0-533 nM) on HEK293 cells expressing mouse CLDN18.2. Here is the method: as §1

Where a chain is given by its changes, count along the chain named.

B1: ZP1I16_D05 IgG1 (antibody, V domains shown)
VH: QVQLVQSGAEVKKPGSSVKVSCKASGGTFSSYAISWVRQAPGQGLEWMGGIIPIFGTANYAQKFQGRVTITADESTSTAYMELSSLRSEDTAVYYCARGFIRYGVFDYWGQGTLVTVSS
VL: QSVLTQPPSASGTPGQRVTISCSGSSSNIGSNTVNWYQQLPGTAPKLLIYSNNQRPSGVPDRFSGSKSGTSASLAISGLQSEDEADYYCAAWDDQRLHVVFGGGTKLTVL
notes: Tested as IgG1 with lambda light chain (pOE-IgG1 (λLC))
In the case of B1, the binding result with human CLDN18.2 [1] is “binds”.

B2: 008LY1_D04 IgG1 (antibody, V domains shown)
VH: B1 VH with F100Y, I101V, R102Q, V105Y
VL: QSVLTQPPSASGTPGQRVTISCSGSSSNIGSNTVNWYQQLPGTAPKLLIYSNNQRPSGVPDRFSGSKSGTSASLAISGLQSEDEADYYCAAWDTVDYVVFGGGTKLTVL
notes: as for B1
B2: the binding result in the test with human CLDN18.2 [2] is reported as “binds”.

B3: ZP1I18_B08 IgG1 (antibody, V domains shown)
VH: B1 VH
VL: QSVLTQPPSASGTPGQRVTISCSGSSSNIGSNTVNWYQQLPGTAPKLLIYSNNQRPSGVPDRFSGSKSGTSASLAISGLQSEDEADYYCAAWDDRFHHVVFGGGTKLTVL
notes: as for B1
As for B3, in the test with human CLDN18.2 [2], the binding result was “binds”.

B4: 008LYG_D08 IgG1 (antibody, V domains shown)
VH: B1 VH with F100Y, I101Q, R102G, Y103M, Y108P
VL: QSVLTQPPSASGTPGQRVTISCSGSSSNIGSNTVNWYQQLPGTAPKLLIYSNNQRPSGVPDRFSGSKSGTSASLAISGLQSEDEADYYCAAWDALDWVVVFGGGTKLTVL
notes: as for B1
With B4, the binding result in the test with mouse CLDN18.2 and with human CLDN18.2 [2] was “binds” each time.

B5: 008M0G_G03 IgG1 (antibody, V domains shown)
VH: B1 VH with F100Y, I101P
VL: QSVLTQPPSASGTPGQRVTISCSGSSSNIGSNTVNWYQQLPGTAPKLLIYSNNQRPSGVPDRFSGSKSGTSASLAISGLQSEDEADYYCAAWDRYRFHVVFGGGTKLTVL
notes: as for B1
Turning to B5, the binding result with human CLDN18.2 [2] was “binds”.
